The values below come from patent publication US20030166868A1.

For assay [1], the target named is C1q (human) (UniProt P02745). As to the kind of experiment: cell-based or functional assay.
The target of a further assay is CD20 antigen (UniProt P11836). Kind of assay: flow cytometry on WIL2-S cells expressing CD20; EC50 as percentage of C2B8 reference. More on the design: unit not given beside the values. In general terms: In flow cytometry, cells or beads pass a laser one at a time.
The target in assay [2] is C1q (human) (UniProt P02745). As to the kind of experiment: C1q binding ELISA, antibody coated on plate, 2 ug/ml C1q, anti-C1q-HRP detection. For orientation: An ELISA detects its analyte on a solid surface through an enzyme-linked reagent.
In assay [3] the target is C1q (human) (UniProt P02745). As to the kind of experiment: C1q binding ELISA, antibody coated on plate up to 100 ug/ml, 2 ug/ml C1q.

CD20 antigen, sequence (P11836 whole entry): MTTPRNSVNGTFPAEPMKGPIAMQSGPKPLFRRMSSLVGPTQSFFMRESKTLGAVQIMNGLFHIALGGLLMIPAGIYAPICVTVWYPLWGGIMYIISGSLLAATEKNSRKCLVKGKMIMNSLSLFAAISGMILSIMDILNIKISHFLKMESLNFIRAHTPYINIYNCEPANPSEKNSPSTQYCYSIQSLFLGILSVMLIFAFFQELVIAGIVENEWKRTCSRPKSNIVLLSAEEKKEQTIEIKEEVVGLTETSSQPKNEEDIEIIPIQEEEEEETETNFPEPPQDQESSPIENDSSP
C1q (human), sequence (P02745 23-245 limits assumed, chain 1 of 3): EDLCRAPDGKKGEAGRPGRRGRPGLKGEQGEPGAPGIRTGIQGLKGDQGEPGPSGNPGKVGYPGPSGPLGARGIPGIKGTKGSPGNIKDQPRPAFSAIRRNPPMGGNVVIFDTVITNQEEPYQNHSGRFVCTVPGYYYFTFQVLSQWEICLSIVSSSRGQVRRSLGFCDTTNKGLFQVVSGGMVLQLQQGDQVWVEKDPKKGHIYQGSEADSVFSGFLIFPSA
C1q (human), sequence (P02746 28-253 limits assumed, chain 2 of 3, further chain): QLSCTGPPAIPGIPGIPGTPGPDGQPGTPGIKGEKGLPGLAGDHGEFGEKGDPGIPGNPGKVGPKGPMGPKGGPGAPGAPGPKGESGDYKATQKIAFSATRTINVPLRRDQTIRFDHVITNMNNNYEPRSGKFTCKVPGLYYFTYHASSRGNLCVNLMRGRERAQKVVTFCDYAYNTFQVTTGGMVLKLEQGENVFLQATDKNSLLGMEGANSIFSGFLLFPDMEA
C1q (human), sequence (P02747 29-245 limits assumed, chain 3 of 3, further chain): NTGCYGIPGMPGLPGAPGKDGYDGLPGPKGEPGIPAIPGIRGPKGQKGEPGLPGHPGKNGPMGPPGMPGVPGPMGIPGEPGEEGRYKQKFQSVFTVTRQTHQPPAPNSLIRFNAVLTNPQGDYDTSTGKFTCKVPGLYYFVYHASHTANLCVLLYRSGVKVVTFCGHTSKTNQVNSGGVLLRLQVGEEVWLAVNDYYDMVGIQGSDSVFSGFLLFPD

C2B8 mutant K320A (antibody) displayed a CDC (percent activity as compared to wild type C2B8) (% of wild type) with C1q (human) [1] of 108. In the assay with CD20 antigen, this substance registered an EC50 as a percentage of the wild type (% of wild type) of 102.

For the substance C2B8 mutant P329A (antibody), the EC50 as a percentage of the wild type (% of wild type) with CD20 antigen was 112.

Turning to C2B8 mutant E318A (antibody), the CDC (percent activity as compared to wild type C2B8) (% of wild type) with C1q (human) [1] is 108. The same substance returned a percent decrease in binding against wild type C2B8 with C1q (human) [2] of 30 % decrease. Further, the EC50 as a percentage of the wild type (% of wild type) in the assay with CD20 antigen is 89.

For C2B8 mutant P331A (antibody), the fold lower binding than wild type C2B8 (fold lower than wild type) with C1q (human) [3] worked out at 60. In the assay with CD20 antigen, this substance came in with an EC50 as a percentage of the wild type (% of wild type) of 103.
